# Measurements: patent US20260167699A1 (Chugai, published 2026)
# Target: T1, FcγRIIIa extracellular domain, C-terminal His tag (human, UniProt P08637 17-208)
# T1 construct: extracellular domain; also called 3a
# Assay: SPR, binding activity relative to GpH7-A5/GpH7-B3/GpL16-k0 (=100)
# T1 sequence (P08637 other isoform, or with tags, fused parts or gaps): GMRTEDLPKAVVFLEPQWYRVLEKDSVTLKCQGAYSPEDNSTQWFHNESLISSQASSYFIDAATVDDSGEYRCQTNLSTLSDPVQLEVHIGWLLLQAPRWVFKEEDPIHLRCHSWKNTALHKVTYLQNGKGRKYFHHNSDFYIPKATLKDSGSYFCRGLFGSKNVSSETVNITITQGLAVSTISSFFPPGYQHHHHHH
row,Binder,He/Con 3a [%]
1,"GpH7-A5/GpH7-B3 variant D270_02A/GpL16-k0 (antibody, human IgG1, kappa, He Ab; copies: 1 + 1 + 2) heavy 1: not shown heavy 2: not shown light: DIVMTQSPLSLPVTPGEPASISCQASESLVHSNRNTYLHWYLQKPGQSPQLLIYKVSNRFSGVPDRFSGSGSGTDFTLKISRVEAEDVGVYYCSQNTHVPPTFGQGTKVEIERTVAAPSVFIFPPSDEQLKSGTASVVCLLNNFYPREAKVQWKVDNALQSGNSQESVTEQDSKDSTYSLSSTLTLSKADYEKHKVYACEVTHQGLSSPVTKSFNRGEC",50.5
2,"GpH7-A5/GpH7-B3 variant D270_18N/GpL16-k0 (antibody, human IgG1, kappa, He Ab; copies: 1 + 1 + 2) heavy 1: not shown heavy 2: not shown light: DIVMTQSPLSLPVTPGEPASISCQASESLVHSNRNTYLHWYLQKPGQSPQLLIYKVSNRFSGVPDRFSGSGSGTDFTLKISRVEAEDVGVYYCSQNTHVPPTFGQGTKVEIERTVAAPSVFIFPPSDEQLKSGTASVVCLLNNFYPREAKVQWKVDNALQSGNSQESVTEQDSKDSTYSLSSTLTLSKADYEKHKVYACEVTHQGLSSPVTKSFNRGEC",51.2
3,"GpH7-A5/GpH7-B3 variant E269_02A/GpL16-k0 (antibody, human IgG1, kappa, He Ab; copies: 1 + 1 + 2) heavy 1: not shown heavy 2: not shown light: DIVMTQSPLSLPVTPGEPASISCQASESLVHSNRNTYLHWYLQKPGQSPQLLIYKVSNRFSGVPDRFSGSGSGTDFTLKISRVEAEDVGVYYCSQNTHVPPTFGQGTKVEIERTVAAPSVFIFPPSDEQLKSGTASVVCLLNNFYPREAKVQWKVDNALQSGNSQESVTEQDSKDSTYSLSSTLTLSKADYEKHKVYACEVTHQGLSSPVTKSFNRGEC",68
4,"GpH7-A5/GpH7-B3 variant E269_14T/GpL16-k0 (antibody, human IgG1, kappa, He Ab; copies: 1 + 1 + 2) heavy 1: not shown heavy 2: not shown light: DIVMTQSPLSLPVTPGEPASISCQASESLVHSNRNTYLHWYLQKPGQSPQLLIYKVSNRFSGVPDRFSGSGSGTDFTLKISRVEAEDVGVYYCSQNTHVPPTFGQGTKVEIERTVAAPSVFIFPPSDEQLKSGTASVVCLLNNFYPREAKVQWKVDNALQSGNSQESVTEQDSKDSTYSLSSTLTLSKADYEKHKVYACEVTHQGLSSPVTKSFNRGEC",59.7
5,"GpH7-A5/GpH7-B3 variant E269_15Y/GpL16-k0 (antibody, human IgG1, kappa, He Ab; copies: 1 + 1 + 2) heavy 1: not shown heavy 2: not shown light: DIVMTQSPLSLPVTPGEPASISCQASESLVHSNRNTYLHWYLQKPGQSPQLLIYKVSNRFSGVPDRFSGSGSGTDFTLKISRVEAEDVGVYYCSQNTHVPPTFGQGTKVEIERTVAAPSVFIFPPSDEQLKSGTASVVCLLNNFYPREAKVQWKVDNALQSGNSQESVTEQDSKDSTYSLSSTLTLSKADYEKHKVYACEVTHQGLSSPVTKSFNRGEC",51.5
6,"GpH7-A5/GpH7-B3 variant E269_07I/GpL16-k0 (antibody, human IgG1, kappa, He Ab; copies: 1 + 1 + 2) heavy 1: not shown heavy 2: not shown light: DIVMTQSPLSLPVTPGEPASISCQASESLVHSNRNTYLHWYLQKPGQSPQLLIYKVSNRFSGVPDRFSGSGSGTDFTLKISRVEAEDVGVYYCSQNTHVPPTFGQGTKVEIERTVAAPSVFIFPPSDEQLKSGTASVVCLLNNFYPREAKVQWKVDNALQSGNSQESVTEQDSKDSTYSLSSTLTLSKADYEKHKVYACEVTHQGLSSPVTKSFNRGEC",55.3
7,"GpH7-A5/GpH7-B3 variant D270_08L/GpL16-k0 (antibody, human IgG1, kappa, He Ab; copies: 1 + 1 + 2) heavy 1: not shown heavy 2: not shown light: DIVMTQSPLSLPVTPGEPASISCQASESLVHSNRNTYLHWYLQKPGQSPQLLIYKVSNRFSGVPDRFSGSGSGTDFTLKISRVEAEDVGVYYCSQNTHVPPTFGQGTKVEIERTVAAPSVFIFPPSDEQLKSGTASVVCLLNNFYPREAKVQWKVDNALQSGNSQESVTEQDSKDSTYSLSSTLTLSKADYEKHKVYACEVTHQGLSSPVTKSFNRGEC",65.1
8,"GpH7-A5/GpH7-B3 variant E269_09D/GpL16-k0 (antibody, human IgG1, kappa, He Ab; copies: 1 + 1 + 2) heavy 1: not shown heavy 2: not shown light: DIVMTQSPLSLPVTPGEPASISCQASESLVHSNRNTYLHWYLQKPGQSPQLLIYKVSNRFSGVPDRFSGSGSGTDFTLKISRVEAEDVGVYYCSQNTHVPPTFGQGTKVEIERTVAAPSVFIFPPSDEQLKSGTASVVCLLNNFYPREAKVQWKVDNALQSGNSQESVTEQDSKDSTYSLSSTLTLSKADYEKHKVYACEVTHQGLSSPVTKSFNRGEC",106
9,"GpH7-A5/GpH7-B3 variant E269_06M/GpL16-k0 (antibody, human IgG1, kappa, He Ab; copies: 1 + 1 + 2) heavy 1: not shown heavy 2: not shown light: DIVMTQSPLSLPVTPGEPASISCQASESLVHSNRNTYLHWYLQKPGQSPQLLIYKVSNRFSGVPDRFSGSGSGTDFTLKISRVEAEDVGVYYCSQNTHVPPTFGQGTKVEIERTVAAPSVFIFPPSDEQLKSGTASVVCLLNNFYPREAKVQWKVDNALQSGNSQESVTEQDSKDSTYSLSSTLTLSKADYEKHKVYACEVTHQGLSSPVTKSFNRGEC",57.9
10,"GpH7-A5/GpH7-B3 variant E269_08L/GpL16-k0 (antibody, human IgG1, kappa, He Ab; copies: 1 + 1 + 2) heavy 1: not shown heavy 2: not shown light: DIVMTQSPLSLPVTPGEPASISCQASESLVHSNRNTYLHWYLQKPGQSPQLLIYKVSNRFSGVPDRFSGSGSGTDFTLKISRVEAEDVGVYYCSQNTHVPPTFGQGTKVEIERTVAAPSVFIFPPSDEQLKSGTASVVCLLNNFYPREAKVQWKVDNALQSGNSQESVTEQDSKDSTYSLSSTLTLSKADYEKHKVYACEVTHQGLSSPVTKSFNRGEC",51.5
11,"GpH7-A5/GpH7-B3 variant D270_07I/GpL16-k0 (antibody, human IgG1, kappa, He Ab; copies: 1 + 1 + 2) heavy 1: not shown heavy 2: not shown light: DIVMTQSPLSLPVTPGEPASISCQASESLVHSNRNTYLHWYLQKPGQSPQLLIYKVSNRFSGVPDRFSGSGSGTDFTLKISRVEAEDVGVYYCSQNTHVPPTFGQGTKVEIERTVAAPSVFIFPPSDEQLKSGTASVVCLLNNFYPREAKVQWKVDNALQSGNSQESVTEQDSKDSTYSLSSTLTLSKADYEKHKVYACEVTHQGLSSPVTKSFNRGEC",63.1
12,"GpH7-A5/GpH7-B3 variant E269_03V/GpL16-k0 (antibody, human IgG1, kappa, He Ab; copies: 1 + 1 + 2) heavy 1: not shown heavy 2: not shown light: DIVMTQSPLSLPVTPGEPASISCQASESLVHSNRNTYLHWYLQKPGQSPQLLIYKVSNRFSGVPDRFSGSGSGTDFTLKISRVEAEDVGVYYCSQNTHVPPTFGQGTKVEIERTVAAPSVFIFPPSDEQLKSGTASVVCLLNNFYPREAKVQWKVDNALQSGNSQESVTEQDSKDSTYSLSSTLTLSKADYEKHKVYACEVTHQGLSSPVTKSFNRGEC",56
13,"GpH7-A5/GpH7-B3 variant D270_13S/GpL16-k0 (antibody, human IgG1, kappa, He Ab; copies: 1 + 1 + 2) heavy 1: not shown heavy 2: not shown light: DIVMTQSPLSLPVTPGEPASISCQASESLVHSNRNTYLHWYLQKPGQSPQLLIYKVSNRFSGVPDRFSGSGSGTDFTLKISRVEAEDVGVYYCSQNTHVPPTFGQGTKVEIERTVAAPSVFIFPPSDEQLKSGTASVVCLLNNFYPREAKVQWKVDNALQSGNSQESVTEQDSKDSTYSLSSTLTLSKADYEKHKVYACEVTHQGLSSPVTKSFNRGEC",51.4
14,"GpH7-A5/GpH7-B3 variant E269_18N/GpL16-k0 (antibody, human IgG1, kappa, He Ab; copies: 1 + 1 + 2) heavy 1: not shown heavy 2: not shown light: DIVMTQSPLSLPVTPGEPASISCQASESLVHSNRNTYLHWYLQKPGQSPQLLIYKVSNRFSGVPDRFSGSGSGTDFTLKISRVEAEDVGVYYCSQNTHVPPTFGQGTKVEIERTVAAPSVFIFPPSDEQLKSGTASVVCLLNNFYPREAKVQWKVDNALQSGNSQESVTEQDSKDSTYSLSSTLTLSKADYEKHKVYACEVTHQGLSSPVTKSFNRGEC",57.2
15,"GpH7-A5/GpH7-B3 variant D270_10E/GpL16-k0 (antibody, human IgG1, kappa, He Ab; copies: 1 + 1 + 2) heavy 1: not shown heavy 2: not shown light: DIVMTQSPLSLPVTPGEPASISCQASESLVHSNRNTYLHWYLQKPGQSPQLLIYKVSNRFSGVPDRFSGSGSGTDFTLKISRVEAEDVGVYYCSQNTHVPPTFGQGTKVEIERTVAAPSVFIFPPSDEQLKSGTASVVCLLNNFYPREAKVQWKVDNALQSGNSQESVTEQDSKDSTYSLSSTLTLSKADYEKHKVYACEVTHQGLSSPVTKSFNRGEC",112
16,"GpH7-A5/GpH7-B3 variant D270_03V/GpL16-k0 (antibody, human IgG1, kappa, He Ab; copies: 1 + 1 + 2) heavy 1: not shown heavy 2: not shown light: DIVMTQSPLSLPVTPGEPASISCQASESLVHSNRNTYLHWYLQKPGQSPQLLIYKVSNRFSGVPDRFSGSGSGTDFTLKISRVEAEDVGVYYCSQNTHVPPTFGQGTKVEIERTVAAPSVFIFPPSDEQLKSGTASVVCLLNNFYPREAKVQWKVDNALQSGNSQESVTEQDSKDSTYSLSSTLTLSKADYEKHKVYACEVTHQGLSSPVTKSFNRGEC",54.6
17,"GpH7-A5/GpH7-B3 variant E269_16H/GpL16-k0 (antibody, human IgG1, kappa, He Ab; copies: 1 + 1 + 2) heavy 1: not shown heavy 2: not shown light: DIVMTQSPLSLPVTPGEPASISCQASESLVHSNRNTYLHWYLQKPGQSPQLLIYKVSNRFSGVPDRFSGSGSGTDFTLKISRVEAEDVGVYYCSQNTHVPPTFGQGTKVEIERTVAAPSVFIFPPSDEQLKSGTASVVCLLNNFYPREAKVQWKVDNALQSGNSQESVTEQDSKDSTYSLSSTLTLSKADYEKHKVYACEVTHQGLSSPVTKSFNRGEC",50.7
18,"GpH7-A5/GpH7-B3 variant D270_14T/GpL16-k0 (antibody, human IgG1, kappa, He Ab; copies: 1 + 1 + 2) heavy 1: not shown heavy 2: not shown light: DIVMTQSPLSLPVTPGEPASISCQASESLVHSNRNTYLHWYLQKPGQSPQLLIYKVSNRFSGVPDRFSGSGSGTDFTLKISRVEAEDVGVYYCSQNTHVPPTFGQGTKVEIERTVAAPSVFIFPPSDEQLKSGTASVVCLLNNFYPREAKVQWKVDNALQSGNSQESVTEQDSKDSTYSLSSTLTLSKADYEKHKVYACEVTHQGLSSPVTKSFNRGEC",55.4
19,"GpH7-A5/GpH7-B3 variant E269_13S/GpL16-k0 (antibody, human IgG1, kappa, He Ab; copies: 1 + 1 + 2) heavy 1: not shown heavy 2: not shown light: DIVMTQSPLSLPVTPGEPASISCQASESLVHSNRNTYLHWYLQKPGQSPQLLIYKVSNRFSGVPDRFSGSGSGTDFTLKISRVEAEDVGVYYCSQNTHVPPTFGQGTKVEIERTVAAPSVFIFPPSDEQLKSGTASVVCLLNNFYPREAKVQWKVDNALQSGNSQESVTEQDSKDSTYSLSSTLTLSKADYEKHKVYACEVTHQGLSSPVTKSFNRGEC",62.1
20,"GpH7-A5/GpH7-B3 variant E269_01G/GpL16-k0 (antibody, human IgG1, kappa, He Ab; copies: 1 + 1 + 2) heavy 1: not shown heavy 2: not shown light: DIVMTQSPLSLPVTPGEPASISCQASESLVHSNRNTYLHWYLQKPGQSPQLLIYKVSNRFSGVPDRFSGSGSGTDFTLKISRVEAEDVGVYYCSQNTHVPPTFGQGTKVEIERTVAAPSVFIFPPSDEQLKSGTASVVCLLNNFYPREAKVQWKVDNALQSGNSQESVTEQDSKDSTYSLSSTLTLSKADYEKHKVYACEVTHQGLSSPVTKSFNRGEC",61.6
21,"GpH7-A5/GpH7-B3 variant D270_19Q/GpL16-k0 (antibody, human IgG1, kappa, He Ab; copies: 1 + 1 + 2) heavy 1: not shown heavy 2: not shown light: DIVMTQSPLSLPVTPGEPASISCQASESLVHSNRNTYLHWYLQKPGQSPQLLIYKVSNRFSGVPDRFSGSGSGTDFTLKISRVEAEDVGVYYCSQNTHVPPTFGQGTKVEIERTVAAPSVFIFPPSDEQLKSGTASVVCLLNNFYPREAKVQWKVDNALQSGNSQESVTEQDSKDSTYSLSSTLTLSKADYEKHKVYACEVTHQGLSSPVTKSFNRGEC",74.2
22,"GpH7-A5/GpH7-B3 variant D270_06M/GpL16-k0 (antibody, human IgG1, kappa, He Ab; copies: 1 + 1 + 2) heavy 1: not shown heavy 2: not shown light: DIVMTQSPLSLPVTPGEPASISCQASESLVHSNRNTYLHWYLQKPGQSPQLLIYKVSNRFSGVPDRFSGSGSGTDFTLKISRVEAEDVGVYYCSQNTHVPPTFGQGTKVEIERTVAAPSVFIFPPSDEQLKSGTASVVCLLNNFYPREAKVQWKVDNALQSGNSQESVTEQDSKDSTYSLSSTLTLSKADYEKHKVYACEVTHQGLSSPVTKSFNRGEC",60
